Where “and” joins values, the source holds several entries; their conditions need not be identical. Equal entries are not always repeated.
Tests used:
[1] = molecular target: mouse PKM2 (AA 1-531), recombinant (mouse) (UniProt P52480); assay: SEC; Superdex 200 increase 10/300 GL, 150 mM NaCl, 20 mM Tris-HCl; purified PKM2 incubated with or without Shikonin; dimer and tetramer mixture eluted at 13 ml
[2] = molecular target: PKM2 (endogenous, RAW264.7 macrophages) (mouse (endogenous in RAW264.7)) (UniProt P52480); assay: cross-linking; RAW264.7 cells pre-treated 1 h with Shikonin (0.5, 1, 2 μM) or not, challenged with LPS (250 ng/ml) + IFN-γ (100 ng/ml) for 24 h; cells cross-linked with disuccinimidyl suberate (500 nM as printed) 30 min at room temperature, quenched with Tris-HCl pH 7.5; lysates analysed by western blot for PKM2

Chain of PKM2 (endogenous, RAW264.7 macrophages), P52480 1-531 (enzyme; other documents disagree on this pair) (P52480 whole entry): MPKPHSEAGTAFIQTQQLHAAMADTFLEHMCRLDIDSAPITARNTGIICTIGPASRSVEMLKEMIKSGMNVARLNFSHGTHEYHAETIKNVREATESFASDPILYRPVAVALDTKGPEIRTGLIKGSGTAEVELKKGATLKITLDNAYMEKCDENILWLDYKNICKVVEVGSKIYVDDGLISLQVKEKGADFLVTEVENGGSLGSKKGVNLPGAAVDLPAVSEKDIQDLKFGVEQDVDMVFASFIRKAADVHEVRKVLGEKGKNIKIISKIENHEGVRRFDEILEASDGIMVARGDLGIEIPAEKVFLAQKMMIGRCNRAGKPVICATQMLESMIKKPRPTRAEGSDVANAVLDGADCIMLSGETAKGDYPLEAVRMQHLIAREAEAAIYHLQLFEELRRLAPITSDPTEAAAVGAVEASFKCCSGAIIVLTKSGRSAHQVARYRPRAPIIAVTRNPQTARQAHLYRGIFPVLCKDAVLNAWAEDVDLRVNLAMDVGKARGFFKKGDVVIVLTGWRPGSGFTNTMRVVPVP
Chain of mouse PKM2 (AA 1-531), recombinant, P52480 1-531 (enzyme; other documents disagree on this pair) (P52480 whole entry, the tested form may be a part): as the sequence (P52480 whole entry) above

Substance	stoichiometry N [1]	stoichiometry N [2]
mouse PKM2 (AA 1-531), recombinant, P52480 1-531 (enzyme; other documents disagree on this pair)	2 and 4	
PKM2 (endogenous, RAW264.7 macrophages), P52480 1-531 (enzyme; other documents disagree on this pair)		4 and 2
